The target in the test is T1, human FGFR2IIIb expressed on Ba/F3 cells (human, UniProt P21802 22-821).
T1 chain: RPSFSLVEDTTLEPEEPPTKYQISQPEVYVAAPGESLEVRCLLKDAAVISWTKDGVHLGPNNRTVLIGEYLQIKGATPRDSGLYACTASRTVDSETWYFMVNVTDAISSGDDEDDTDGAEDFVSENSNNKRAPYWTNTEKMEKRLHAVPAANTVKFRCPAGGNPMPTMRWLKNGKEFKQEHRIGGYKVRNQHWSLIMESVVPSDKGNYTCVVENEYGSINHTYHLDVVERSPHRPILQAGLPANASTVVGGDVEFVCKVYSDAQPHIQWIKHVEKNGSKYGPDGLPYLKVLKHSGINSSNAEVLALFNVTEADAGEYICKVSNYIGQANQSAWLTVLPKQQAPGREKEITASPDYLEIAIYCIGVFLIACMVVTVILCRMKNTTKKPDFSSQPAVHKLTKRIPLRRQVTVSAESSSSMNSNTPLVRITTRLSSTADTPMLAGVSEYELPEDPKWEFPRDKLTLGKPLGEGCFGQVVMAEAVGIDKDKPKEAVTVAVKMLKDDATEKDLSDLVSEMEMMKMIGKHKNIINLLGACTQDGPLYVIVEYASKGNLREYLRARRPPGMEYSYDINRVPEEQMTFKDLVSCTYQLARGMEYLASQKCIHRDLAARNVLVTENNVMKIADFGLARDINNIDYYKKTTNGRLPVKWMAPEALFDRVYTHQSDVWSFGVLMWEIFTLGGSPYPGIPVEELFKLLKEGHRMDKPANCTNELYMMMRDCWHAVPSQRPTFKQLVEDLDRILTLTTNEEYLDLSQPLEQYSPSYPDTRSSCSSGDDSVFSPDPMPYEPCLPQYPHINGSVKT
The test can be described thus: cell-based or functional assay.

B1: afucosylated monoclonal antibody αFGFR2bA (antibody, human IgG1, kappa)
heavy: not shown
light: DIQMTQSPSSLSASVGDRVTITCKASQGVSNDVAWYQQKPGKAPKLLIYSASYRYTGVPSRFSGSGSGTDFTFTISSLQPEDIATYYCQQHSTTPYTFGQGTKLEIKRTVAAPSVFIFPPSDEQLKSGTASVVCLLNNFYPREAKVQWKVDNALQSGNSQESVTEQDSKDSTYSLSSTLTLSKADYEKHKVYACEVTHQGLSSPVTKSFNRGEC
modifications: Asn297 glycan lacks fucose (afucosylated; produced in FUT8-lacking Potelligent CHOK1SV cells)
As for B1, the “EC50 (ng/mL) of ADCC, LDH release” value came out at 2 ng/mL.

B2: fucosylated monoclonal antibody αFGFR2bF (antibody, human IgG1, kappa)
heavy: not shown
light: B1 light
modifications: Asn297 glycan contains fucose (fucosylated)
On to B2, for which the “EC50 (ng/mL) of ADCC, LDH release” value was 16 ng/mL.

The values are drawn from patent publication US20190175730A1 (Five Prime, published 2019).
